# Source: article PMC10377036, “Biological Recognition-Based Electrochemical Aptasensor for Point-of-Care Detection of cTnI”
# Target: cardiac troponin I (cTnI) (UniProt P19429 2-210)
# Assay: electrochemical aptasensor (CV, SWV); 50 ng/mL cTnI in CV feasibility test; electrode blocked with MCH; sensor LOD 8.46 pg/mL, linear range 10 pg/mL-100 ng/mL (not a Kd); SWV in PBS (0.01 M PB, 150 mM NaCl, pH 7.4); 10 uL cTnI incubated on electrode 10 min at room temperature
# Conditions: protein: commercial; label: methylene blue; single strand
# cardiac troponin I (cTnI), sequence (P19429 2-210): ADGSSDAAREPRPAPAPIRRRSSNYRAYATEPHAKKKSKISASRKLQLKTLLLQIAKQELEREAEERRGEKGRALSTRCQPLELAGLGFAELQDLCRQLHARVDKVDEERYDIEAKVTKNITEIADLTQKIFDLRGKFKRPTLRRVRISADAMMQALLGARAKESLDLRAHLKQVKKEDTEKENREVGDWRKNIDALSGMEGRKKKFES
binder,measurement,value
"CGTGCAGTACGCCAACCTTTCTCATGCGCTGCCCCTCTTA (ssDNA, 5' thiol (SH); 3' methylene blue (MB)) [Apt (MB-Apt-SH)]",binding result,binds
